B1: MYT0515 (antibody, V domains shown)
VH: EVQLVQSGAEVKKPGSSVKVSCKASGYTITDSNIHWVRQAPGQSLEWIGYIYPYNGGTDYNQKFKNRATLTVDNPTNTAYMELSSLRSEDTDFYYCVNGNPWHAYWGQGTLVTVSS
VL: DIQLTQSPSTLSASVGDRVTITCRASESLDNYGIRFLTWFQQKPGKAPKLLMYAASNQGSGVPSRFSGSGSGTEFTLTISSLQPDDFATYYCQQTKEVPWSFGQGTKVEVK
notes: IgG; gemtuzumab VH variant #34 (L103H)
B2: MYT0516 (antibody, V domains shown)
VH: EVQLVQSGAEVKKPGSSVKVSCKASGYTITDSNIHWVRQAPGQSLEWIGYIYPYNGGTDYNQKFKNRATLTVDNPTNTAYMELSSLRSEDTDFYYCVNGNPWLHYWGQGTLVTVSS
VL: DIQLTQSPSTLSASVGDRVTITCRASESLDNYGIRFLTWFQQKPGKAPKLLMYAASNQGSGVPSRFSGSGSGTEFTLTISSLQPDDFATYYCQQTKEVPWSFGQGTKVEVK
notes: IgG; gemtuzumab VH variant #35 (A104H)
B3: MYT0517 (antibody, V domains shown)
VH: EVQLVQSGAEVKKPGSSVKVSCKASGYTITDSNIHWVRQAPGQSLEWIGYIYPYNGGTDYNQKFKNRATLTVDNPTNTAYMELSSLRSEDTDFYYCVNGNPWLAHWGQGTLVTVSS
VL: DIQLTQSPSTLSASVGDRVTITCRASESLDNYGIRFLTWFQQKPGKAPKLLMYAASNQGSGVPSRFSGSGSGTEFTLTISSLQPDDFATYYCQQTKEVPWSFGQGTKVEVK
notes: IgG; gemtuzumab VH variant #36 (Y105H)
B4: MYT2633 (antibody, V domains shown)
VH: QVQLQQPGAEVVKPGASVKMSCKASGYTFTSYYIHWIKQTPGQGLEWVGVIYPGNDDISYNQKFQGKATLTADKSSTTAYMQLSSLTSEDSAVYYCAREVRLRYFDVWGQGTTVTVSS
VL: EIVLTQSPGSLAVSPGERVTMSCKSSQSVFFSSSQKNYLHWYQQIPGQSPRLLIYWASTRESGVPDRFTGSGSGTDFTLTISSVQPEDLAIYYCHQYLSSRTFGQGTKLEIK
notes: IgG; IMGN779 VL variant #17 (A40H)
B5: MYT1342 (antibody, V domains shown)
VH: QVQLVQSGAEVKKPGASVKVSCKASGYTFTNYHINWVRQAPGQGLEWIGWIYPGDGSTKYNEKFKAKATLTADTSTSTAYMELRSLRSDDTAVYYCASGYEDAMDYWGQGTTVTVSS
VL: DIQMTQSPSSLSASVGDRVTINCKASQDINSYLSWFQQKPGKAPKTLIYRANRLVDGVPSRFSGSGSGQDYTLTISSLQPEDFATYYCLQYDEFPLTFGGGTKVEIK
notes: IgG; vadastuximab VH variant #8 (D33H)
B6: MYT1344 (antibody, V domains shown)
VH: QVQLVQSGAEVKKPGASVKVSCKASGYTFTNYDIHWVRQAPGQGLEWIGWIYPGDGSTKYNEKFKAKATLTADTSTSTAYMELRSLRSDDTAVYYCASGYEDAMDYWGQGTTVTVSS
VL: DIQMTQSPSSLSASVGDRVTINCKASQDINSYLSWFQQKPGKAPKTLIYRANRLVDGVPSRFSGSGSGQDYTLTISSLQPEDFATYYCLQYDEFPLTFGGGTKVEIK
notes: IgG; vadastuximab VH variant #10 (N35H)
B7: MYT1362 (antibody, V domains shown)
VH: QVQLVQSGAEVKKPGASVKVSCKASGYTFTNYDINWVRQAPGQGLEWIGWIYPGDGSTKYNEKFKAKATLTADTSTSTAYMELRSLRSDDTAVYYCHSGYEDAMDYWGQGTTVTVSS
VL: DIQMTQSPSSLSASVGDRVTINCKASQDINSYLSWFQQKPGKAPKTLIYRANRLVDGVPSRFSGSGSGQDYTLTISSLQPEDFATYYCLQYDEFPLTFGGGTKVEIK
notes: IgG; vadastuximab VH variant #28 (A97H)
B8: MYT1364 (antibody, V domains shown)
VH: QVQLVQSGAEVKKPGASVKVSCKASGYTFTNYDINWVRQAPGQGLEWIGWIYPGDGSTKYNEKFKAKATLTADTSTSTAYMELRSLRSDDTAVYYCASHYEDAMDYWGQGTTVTVSS
VL: DIQMTQSPSSLSASVGDRVTINCKASQDINSYLSWFQQKPGKAPKTLIYRANRLVDGVPSRFSGSGSGQDYTLTISSLQPEDFATYYCLQYDEFPLTFGGGTKVEIK
notes: IgG; vadastuximab VH variant #30 (G99H)
B9: MYT2661 (antibody, V domains shown)
VH: QVQLVQSGAEVKKPGASVKVSCKASGYTFTNYDINWVRQAPGQGLEWIGWIYPGDGSTKYNEKFKAKATLTADTSTSTAYMELRSLRSDDTAVYYCASGYEDAMDYWGQGTTVTVSS
VL: DIQMTQSPSSLSASVGDRVTINCKASQDINSHLSWFQQKPGKAPKTLIYRANRLVDGVPSRFSGSGSGQDYTLTISSLQPEDFATYYCLQYDEFPLTFGGGTKVEIK
notes: IgG; vadastuximab VL variant #9 (Y32H)
B10: MYT2663 (antibody, V domains shown)
VH: QVQLVQSGAEVKKPGASVKVSCKASGYTFTNYDINWVRQAPGQGLEWIGWIYPGDGSTKYNEKFKAKATLTADTSTSTAYMELRSLRSDDTAVYYCASGYEDAMDYWGQGTTVTVSS
VL: DIQMTQSPSSLSASVGDRVTINCKASQDINSYLHWFQQKPGKAPKTLIYRANRLVDGVPSRFSGSGSGQDYTLTISSLQPEDFATYYCLQYDEFPLTFGGGTKVEIK
notes: IgG; vadastuximab VL variant #11 (S34H)
B11: MYT2673 (antibody, V domains shown)
VH: QVQLVQSGAEVKKPGASVKVSCKASGYTFTNYDINWVRQAPGQGLEWIGWIYPGDGSTKYNEKFKAKATLTADTSTSTAYMELRSLRSDDTAVYYCASGYEDAMDYWGQGTTVTVSS
VL: DIQMTQSPSSLSASVGDRVTINCKASQDINSYLSWFQQKPGKAPKTLIYRANRLVDGVPSRFSGSGSGQDYTLTISSLQPEDFATYYCLQHDEFPLTFGGGTKVEIK
notes: IgG; vadastuximab VL variant #21 (Y91H)
B12: MYT2678 (antibody, V domains shown)
VH: QVQLVQSGAEVKKPGASVKVSCKASGYTFTNYDINWVRQAPGQGLEWIGWIYPGDGSTKYNEKFKAKATLTADTSTSTAYMELRSLRSDDTAVYYCASGYEDAMDYWGQGTTVTVSS
VL: DIQMTQSPSSLSASVGDRVTINCKASQDINSYLSWFQQKPGKAPKTLIYRANRLVDGVPSRFSGSGSGQDYTLTISSLQPEDFATYYCLQYDEFPHTFGGGTKVEIK
notes: IgG; vadastuximab VL variant #26 (L96H)
B13: IMGN779 (antibody, V domains shown)
VH: QVQLQQPGAEVVKPGASVKMSCKASGYTFTSYYIHWIKQTPGQGLEWVGVIYPGNDDISYNQKFQGKATLTADKSSTTAYMQLSSLTSEDSAVYYCAREVRLRYFDVWGQGTTVTVSS
VL: EIVLTQSPGSLAVSPGERVTMSCKSSQSVFFSSSQKNYLAWYQQIPGQSPRLLIYWASTRESGVPDRFTGSGSGTDFTLTISSVQPEDLAIYYCHQYLSSRTFGQGTKLEIK
notes: Unconjugated IgG from Expi293 supernatant; entries called heavy/light chain are variable domains; also called MYT1212; IMGN779 starting ABPC
B14: Vadastuximab (antibody, V domains shown)
VH: QVQLVQSGAEVKKPGASVKVSCKASGYTFTNYDINWVRQAPGQGLEWIGWIYPGDGSTKYNEKFKAKATLTADTSTSTAYMELRSLRSDDTAVYYCASGYEDAMDYWGQGTTVTVSS
VL: DIQMTQSPSSLSASVGDRVTINCKASQDINSYLSWFQQKPGKAPKTLIYRANRLVDGVPSRFSGSGSGQDYTLTISSLQPEDFATYYCLQYDEFPLTFGGGTKVEIK
notes: IgG from Expi293 supernatant; entries called heavy/light chain are variable domains; also called MYT1334; vadastuximab starting ABPC

The binders below were run against T1, CD33 (Sino Biological, Cat #12238-H08H) (UniProt P20138 18-259) (assay: BLI, IgG captured on anti-human Fc sensor, 50 nM CD33, pH 7.4 vs pH 5.0).
T1 sequence (P20138 18-259 limits assumed): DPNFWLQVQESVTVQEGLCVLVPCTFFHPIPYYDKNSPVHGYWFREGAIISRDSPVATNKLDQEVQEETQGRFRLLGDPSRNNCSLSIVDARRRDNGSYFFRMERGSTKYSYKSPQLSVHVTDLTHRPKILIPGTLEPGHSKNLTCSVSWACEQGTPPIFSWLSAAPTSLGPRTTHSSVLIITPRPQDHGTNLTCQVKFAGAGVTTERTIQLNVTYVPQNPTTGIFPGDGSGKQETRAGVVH
Excerpt: Multiple CD33-binding monoclonal antibodies have been described in the literature and can be used as a template for engineering pH-dependent binding (Hamann P R et al (2002) “Gemtuzumab ozogamicin, a potent and selective anti-CD33 antibody-calicheamicin conjugate for treatment of acute myeloid leukemia.” Bioconjug Chem 13(1):47-58). Gemtuzumab (Heavy chain SEQ ID NO: 1, Light chain SEQ ID NO: 2) was selected as a CD33-binding monoclonal antibody for pH engineering via histidine scanning. Briefly, CDRs in the heavy chain were identified using the methods described by Kabat et al (Kabat et al. (1992) Sequences of Proteins of Immunological Interest, DIANE publishing) and IMGT (Lefranc M P (1999) “The IMGT unique numbering for Immunoglobulins, T cell receptors and Ig-like domains” The Immunologist 7, 132-136), and for each CDR, residues falling under either or both Kabat and IMGT CDR definitions were called as CDR residues. To generate pH-dependent sequence variants, individual amino acid residues within the heavy chain CDRs were systematically substituted with a histidine, one at a time (MYT0482-MYT0517). In cases where the starting CDR residue was a histidine, it was mutated to an alanine. Antibody variants with only one histidine or alanine mutation in a heavy chain CDR were generated by co-transfection of Expi293 cells with a) one heavy chain sequence variant, and b) the corresponding starting ABPC light chain using methods known to the art. After allowing for four days of protein expression, cell culture supernatants were collected, quantified by SDS-PAGE analysis, (FIG. 1), and the pH dependence of the variant was evaluated using biolayer interferometry (BLI) on an Octet RED 384 instrument. Briefly, cell culture supernatants were normalized to an antibody expression level of 25 μg/mL, and captured on an anti-human Fc sensor (Forte Bio). A baseline was established using 1×PBST (50 mM Potassium Phosphate Buffer+150 mM NaCl+0.05% Tween 20) pH 7.4, and the sensor was associated with 50 nM of CD33 (Sino Biological, Cat #12238) in 1×PBST pH 7.4 for 120 sec to generate an association curve. In the dissociation phase, the antibody-antigen complex on the sensor was exposed to 1×PBST pH 7.4 for 300-600 sec. Baseline, association, and dissociation were repeated using 1×MES (100 mM MES Buffer+150 mM NaCl+0.05% Tween 20) pH 5.0 throughout in a separate condition.
B1: binds. B2: binds. B3: binds.

What follows are binders tested against T1, CD33 (Sino Biological, Cat #12238-H08H) (assay: BLI, IgG captured on anti-human Fc sensor, pH 7.4 and pH 5.4).
B4: no binding (tested: 50 nM CD33). B5: no binding (tested: 50 nM CD33). B6: no binding (tested: 50 nM CD33). B7: no binding (tested: 50 nM CD33). B8: no binding (tested: 50 nM CD33). B9: no binding (tested: 50 nM CD33). B10: no binding (tested: 50 nM CD33). B11: no binding (tested: 50 nM CD33). B12: no binding (tested: 50 nM CD33).

What follows are binders tested against T1, CD33 (Sino Biological, Cat #12238-H08H) (assay: BLI, IgG captured on anti-human Fc biosensor, CD33 at low pH or high pH).
B13: binds. B14: binds.

Source: patent US20220324969A1 (MYTHIC THERAPEUTICS, published 2022)
